Tested on: H460 cells
Experiment: Efficacy of M830 in the H460 non-small cell lung carcinoma xenograft model
Format: in vivo, mouse
Conditions: combination partner Paclitaxel
Description: Animals were monitored for regression responses.
The statistical tests were not adjusted for multiple comparisons.
Cultured H460 cells were harvested during exponential growth and resuspended in phosphate buffered saline at a concentration of 1×10^8 cells/mL. 1.0×10^7 tumor cells were injected subcutaneously into the flank of athymic nude mice. Animals were euthanized when tumors reached the pre-determined volume endpoint of 2000 mm^3 or on the final day (Day 88), whichever came first.

B1: M830: TEM8 monoclonal antibody (hIgG1), VH SEQ ID NO:5, VL SEQ ID NO:6 (antibody, V domains shown)
VH: EVQLVESGGGVVQPGRSVRLSCAASGFTFSTYTMHWVRQAPGKGLEWVAIISNDGSNKYYADPVRGRFTISRDNSKNTLYLQMNSLRAEDTAVYYCVRGSSWYRGNWFDPWGQGTLVTVSS
VL: DIQMTQSPSSLSASVGDRVTIACRASQTISRYLNWYQQKPGKAPKLLIYAASSLQSGVSSRFSGSGSGTEFTLTISSLQPEDFATYFCQQTYSPPITFGQGTRLEIKR
modifications: TEM830 mAb VH; TEM830 mAb VL
regression (in % Tumor Reduction vs. Vehicle at Day 21 cell): −61%

— patent US11033620B2, “Combination therapies targeting tumor-associated stroma or tumor cells and microtubules” (BIOMED VALLEY DISCOVERIES, INC., priority 2014, dated 2021)
